Measured values published in patent publication US20260167718A1 (Merck Sharp & Dohme, published 2026).
Substitutions are numbered along the chain they refer to. Numbers in names are those of the source.

T1: rhesus ILT3-His tagged recombinant protein (rhesus monkey (Macaca mulatta))
T1 construct: also called ILT3_MM; not shown: His tag
T1 chain: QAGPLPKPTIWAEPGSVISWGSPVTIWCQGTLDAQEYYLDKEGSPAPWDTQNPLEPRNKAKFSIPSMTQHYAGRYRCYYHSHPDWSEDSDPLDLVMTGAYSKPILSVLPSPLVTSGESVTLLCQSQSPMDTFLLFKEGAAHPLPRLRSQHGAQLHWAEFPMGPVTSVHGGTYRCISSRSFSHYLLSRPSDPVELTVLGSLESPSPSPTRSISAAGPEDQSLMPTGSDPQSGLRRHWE

B1: Humanized anti-ILT3 mAb (52B8 VH1/VL1) IgG4 S228P/Kappa (antibody, V domains shown)
VH: EVQLVESGGGLVQPGGSLRLSCAASGFTFSNYGMSWVRQAPGKGLEWVATISGGGDYTNYPDSMRGRFTISRDNAKNSLYLQMNSLRAEDTAVYYCGRRLWFRSLYYAMDYWGQGTLVTVSS
VL: DIVLTQSPDSLAVSLGERATINCRASEKVDSFGNSFMHWYQQKPGQPPKLLIYLTSNLDSGVPDRFSGSGSRTDFTLTISSLQAEDVAVYYCQQNNEDPYTFGQGTKLEIKR
notes: also called mAb 1
B2: Humanized anti-ILT3 mAb (52B8 VH1/VL3) IgG4 S228P/Kappa (antibody, V domains shown)
VH: B1 VH
VL: EIVLTQSPATLSLSPGERATLSCRASEKVDSFGNSFMHWYQQKPGQAPRLLIYLTSNLDSGVPARFSGSGSRTDFTLTISSLEPEDFAVYYCQQNNEDPYTFGQGTKLEIKR
notes: also called mAb 3
B3: Humanized anti-ILT3 mAb (52B8 VH1 M64V W101F/VL5 N34D) IgG4 S228P/Kappa (antibody, V domains shown)
VH: B1 VH with M64V, W101F
VL: DIQLTQSPSSLSASVGDRVTITCRASEKVDSFGDSFMHWYQQKPGKAPKLLIYLTSNLDSGVPSRFSGSGSGTDFTLTISSLQPEDFATYYCQQNNEDPYTFGQGTKLEIKR
notes: also called mAb 54
B4: Humanized anti-ILT3 mAb (52B8 VH1 M64V W101Q/VL5 N34Q) IgG4 S228P/Kappa (antibody, V domains shown)
VH: B1 VH with M64V, W101Q
VL: B3 VL with D34Q
notes: also called mAb 61
B5: Humanized anti-ILT3 mAb (52B8 VH1 M64V/VL3) IgG4 S228P/Kappa (antibody, V domains shown)
VH: B1 VH with M64V
VL: B2 VL
notes: also called mAb 11
B6: Humanized anti-ILT3 mAb (52B8 VH2/VL1) IgG4 S228P/Kappa (antibody, V domains shown)
VH: B1 VH with R87K
VL: B1 VL
B7: Humanized anti-ILT3 mAb (52B8 VH1 M64V/VL4) IgG4 S228P/Kappa (antibody, V domains shown)
VH: B1 VH with M64V
VL: B2 VL with V62I, R72G
notes: also called mAb 12
B8: Humanized anti-ILT3 mAb (52B8 VH1 M64V W101Y/VL5 S35A) IgG4 S228P/Kappa (antibody, V domains shown)
VH: B1 VH with M64V, W101Y
VL: B3 VL with D34N, S35A
notes: also called mAb 55
B9: Humanized anti-ILT3 mAb (52B8 VH1 M64V W101Q/VL5 S35A) IgG4 S228P/Kappa (antibody, V domains shown)
VH: B1 VH with M64V, W101Q
VL: B3 VL with D34N, S35A
notes: also called mAb 59
B10: Humanized anti-ILT3 mAb (52B8 VH1 M64V W101Q/VL5 N34D) IgG4 S228P/Kappa (antibody, V domains shown)
VH: B1 VH with M64V, W101Q
VL: B3 VL
notes: also called mAb 62
B11: Humanized anti-ILT3 mAb (52B8 VH1 M64V/VL5 S35A) IgG4 S228P/Kappa (antibody, V domains shown)
VH: B1 VH with M64V
VL: B3 VL with D34N, S35A
notes: also called mAb 44
B12: Humanized anti-ILT3 mAb (52B8 VH2 M64V/VL1) IgG4 S228P/Kappa (antibody, V domains shown)
VH: B1 VH with M64V, R87K
VL: B1 VL
notes: also called mAb 13
B13: Humanized anti-ILT3 mAb (52B8 VH1 M64V W101Y/VL5 N34Q) IgG4 S228P/Kappa (antibody, V domains shown)
VH: B1 VH with M64V, W101Y
VL: B3 VL with D34Q
notes: also called mAb 57
B14: Humanized anti-ILT3 mAb (52B8 VH1 M64V/VL5 N34D) IgG4 S228P/Kappa (antibody, V domains shown)
VH: B1 VH with M64V
VL: B3 VL
notes: also called mAb 47
B15: Humanized anti-ILT3 mAb (52B8 VH1 M64V W101F/VL5 S35A) IgG4 S228P/Kappa (antibody, V domains shown)
VH: B1 VH with M64V, W101F
VL: B3 VL with D34N, S35A
notes: also called mAb 51
B16: Humanized anti-ILT3 mAb (52B8 VH1 M64L/VL3) IgG4 S228P/Kappa (antibody, V domains shown)
VH: B1 VH with M64L
VL: B2 VL
notes: also called mAb 19
B17: Humanized anti-ILT3 mAb (52B8 VH1 M64V W101F/VL5 N34Q) IgG4 S228P/Kappa (antibody, V domains shown)
VH: B1 VH with M64V, W101F
VL: B3 VL with D34Q
notes: also called mAb 53
B18: Humanized anti-ILT3 mAb (52B8 VH1 M64V/VL1) IgG4 S228P/Kappa (antibody, V domains shown)
VH: B1 VH with M64V
VL: B1 VL
notes: also called mAb 9
B19: Humanized anti-ILT3 mAb (52B8 VH1 M64V W101F/VL5 S35N) IgG4 S228P/Kappa (antibody, V domains shown)
VH: B1 VH with M64V, W101F
VL: B3 VL with D34N, S35N
B20: Humanized anti-ILT3 mAb (52B8 VH1 M64L/VL1) IgG4 S228P/Kappa (antibody, V domains shown)
VH: B1 VH with M64L
VL: B1 VL
notes: also called mAb 17
B21: Humanized anti-ILT3 mAb (52B8 VH1 M64L/VL4) IgG4 S228P/Kappa (antibody, V domains shown)
VH: B1 VH with M64L
VL: B2 VL with V62I, R72G
notes: also called mAb 20
B22: Humanized anti-ILT3 mAb (52B8 VH1 M64V W101Y/VL5 S35N) IgG4 S228P/Kappa (antibody, V domains shown)
VH: B1 VH with M64V, W101Y
VL: B3 VL with D34N, S35N
notes: also called mAb 56
B23: Humanized anti-ILT3 mAb (52B8 VH1 M64V/VL5 S35N) IgG4 S228P/Kappa (antibody, V domains shown)
VH: B1 VH with M64V
VL: B3 VL with D34N, S35N
notes: also called mAb 45
B24: Humanized anti-ILT3 mAb (52B8 VH1 M64V W101Q/VL5 S35N) IgG4 S228P/Kappa (antibody, V domains shown)
VH: B1 VH with M64V, W101Q
VL: B3 VL with D34N, S35N
notes: also called mAb 60
B25: Humanized anti-ILT3 mAb (52B8 VH1 M64V W101Y/VL5 N34D) IgG4 S228P/Kappa (antibody, V domains shown)
VH: B1 VH with M64V, W101Y
VL: B3 VL
notes: also called mAb 58

molecular target: T2, Human ILT3 (LILRB4) extracellular domain with C-terminal His Tag (human, UniProt Q8NHJ6 22-259); test: SPR (Biacore), human ILT3-His
T2 construct: the claims count residues 1-238 as the extracellular domain; also called human ILT3-His; ILT3_H
Procedure: (§1) The binding kinetics and affinities of anti-human ILT3 clones for human or rhesus ILT3-His tagged recombinant protein were measured by surface plasmon resonance using a Biacore™ T200 system (GE Healthcare, Piscataway, NJ). HBS-EP+ buffer (BR-1006-69) was used as the running buffer. Anti-human Fc antibody (Human Fc Capture Kit, BR100839, GE Healthcare) was immobilized via amine coupling chemistry in all four flow cells on a Series S CM5 sensor chip (BR100530 or 29149603, GE Healthcare) following manufacturer instructions. Flow cell 1 was used as reference for background subtraction and was not used for capture. […] Following each injection cycle, all four flow cells were regenerated using 30 second injection of 3M MgCl₂ solution at a flow rate of 10 μL/minute. Reference subtracted sensorgrams were fit to a 1:1 Langmuir Binding Model in the Biacore™ T200 Evaluation Software (Version 2.0) to determine the association (ka) and dissociation (kd) rate constants and the equilibrium dissociation constant KD (=kd/ka).

Row | Kd | Binder | binding result
1 | 0.99 nM | B1 | 
2 | 1.1 nM | B2 | 
3 |  | B3 | no binding (tested: ILT3-His injected up to 20 nM)
4 |  | B4 | no binding (tested: ILT3-His injected up to 20 nM)
5 | 1.1 nM | B5 | 
6 | 0.94 nM | B6 | 
7 | 1.5 nM | B7 | 
8 |  | B8 | no binding (tested: ILT3-His injected up to 20 nM)
9 |  | B9 | no binding (tested: ILT3-His injected up to 20 nM)
10 |  | B10 | no binding (tested: ILT3-His injected up to 20 nM)
11 | 2.6 nM | B11 | 
12 | 0.94 nM | B12 | 
13 |  | B13 | no binding (tested: ILT3-His injected up to 20 nM)
14 | 3.8 nM | B14 | 
15 |  | B15 | no binding (tested: ILT3-His injected up to 20 nM)
16 | 0.99 nM | B16 | 
17 | 35 nM | B17 | 
18 | 0.94 nM | B18 | 
19 |  | B19 | no binding (tested: ILT3-His injected up to 20 nM)
20 | 0.87 nM | B20 | 
21 | 1.3 nM | B21 | 
22 |  | B22 | no binding (tested: ILT3-His injected up to 20 nM)
23 | 4.7 nM | B23 | 
24 |  | B24 | no binding (tested: ILT3-His injected up to 20 nM)
25 |  | B25 | no binding (tested: ILT3-His injected up to 20 nM)

Molecular target: T1, rhesus ILT3-His tagged recombinant …
Test: SPR (Biacore), rhesus ILT3-His
Procedure: as §1

Row | Kd | Binder | binding result
26 | 25 nM | B1 | 
27 | 26 nM | B2 | 
28 |  | B3 | no binding (tested: ILT3-His injected up to 20 nM)
29 |  | B4 | no binding (tested: ILT3-His injected up to 20 nM)
30 | 27 nM | B5 | 
31 | 25 nM | B6 | 
32 | 29 nM | B7 | 
33 |  | B8 | no binding (tested: ILT3-His injected up to 20 nM)
34 |  | B9 | no binding (tested: ILT3-His injected up to 20 nM)
35 |  | B10 | no binding (tested: ILT3-His injected up to 20 nM)
36 | 34 nM | B11 | 
37 | 25 nM | B12 | 
38 |  | B13 | no binding (tested: ILT3-His injected up to 20 nM)
39 | 115 nM | B14 | 
40 |  | B15 | no binding (tested: ILT3-His injected up to 20 nM)
41 | 26 nM | B16 | 
42 |  | B17 | no binding (tested: ILT3-His injected up to 20 nM)
43 | 26 nM | B18 | 
44 |  | B19 | no binding (tested: ILT3-His injected up to 20 nM)
45 | 24 nM | B20 | 
46 | 29 nM | B21 | 
47 |  | B22 | no binding (tested: ILT3-His injected up to 20 nM)
48 |  | B23 | no binding (tested: ILT3-His injected up to 20 nM)
49 |  | B24 | no binding (tested: ILT3-His injected up to 20 nM)
50 |  | B25 | no binding (tested: ILT3-His injected up to 20 nM)
